These results are taken from patent publication US20140072563A1 (Regeneron, published 2014).

The chains are these.
B1: H1M1940N (antibody, V domains shown)
VH: QVQVVESGGGVVQPGRSLRLSCAASGFTFSDYGMHWVRQAPGKGLEWVAIISYDGSNKYYADSVKGRFTVSRDNSKNTLYLQLDSLRPEDAAVFYCAREGAFNLDYYAMDVWGQGTTVTVSS
VL: AIQMTQSPSSLSASVGDRVTITCRASQDIRNDLGWYQQKPGKAPNLLIYAASSLQSGVPSRFSGSGSGTDFTLTISSLQPEDFATYYCLQDSNYPLTFGGGTKVEIK
notes: Hybridoma chimeric antibody: human variable domains, mouse constant domains (H1M prefix, mouse Fc)
B2: H2M1829N (antibody, V domains shown)
VH: EVQLVESGGGVVRPGGSLRLSCVASGFTFDDYGMSWVRQAPGKGLECVSGINWNGGSTDYADSVKGRFTISRDNAKNSLYLQMNSLRAEDTALYHCARDGGDWDYFDLWGRGTLVTVSS
VL: EILMTQSPATLSVSPGERATLSCRASQSVSSNLAWYQQKPGQAPRLLIYGASTRATGIPARFSGSGSGTEFTLTISSLQSEDFAIYYCQEYNDWPLTFGGGTKVEIK
notes: Hybridoma chimeric antibody: human variable domains, mouse IgG2 Fc (H2M prefix)
B3: H2M1824N (antibody, V domains shown)
VH: B2 VH with V23A, L93S, H95Y
VL: B2 VL with L3V, I85V, Y87F
notes: as for B2
B4: H2M1827N (antibody, V domains shown)
VH: B2 VH with V23A, N52S, S57N
VL: B2 VL
notes: as for B2
B5: H2M1821N (antibody, V domains shown)
VH: EVQLVESGGGLVQPGRSLRLSCAASGFTFDDYAMHWVRQAPGKGLEWVSSISWNSGSIGYADSVKGRFTISRDNAKNSLYLQMNSLKPEDTALYYCTKDTDYGDYLDAFDIWGQGTMVAVAS
VL: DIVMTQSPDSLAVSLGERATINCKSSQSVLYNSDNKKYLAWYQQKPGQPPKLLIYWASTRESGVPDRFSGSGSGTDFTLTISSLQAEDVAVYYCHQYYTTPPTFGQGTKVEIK
notes: as for B2
B6: H1M1828N (antibody, V domains shown)
VH: EVQLVESGGGLVQPGRSLRLSCAASGFTFDDYAMYWVRQAPGKGLEWVSGISWNSGSIGYADSVKGRFTISRDNAKNSLYLQMDSLRAEDTALYYCARDMMEVDLYGMDVWGQGTTVTVSS
VL: DIQMTQSPSSVSASVGDRVTITCRASQDISSWLAWYQQKPGTAPKFLIYETSSLQSGVPSRFSGSGSGTDFILTISSLQPEDFATYYCQQTDSFPHTFGQGTKLEIR
notes: as for B1
B7: H2M1930N (antibody, V domains shown)
VH: EVQLVESGGGLVKPGGSLRLSCVASGFTFSSYNMNWVRQAPGKGLEWVSFISGSSNYIHYADSVKGRFTISRDNAKNALYLQMNSLRAEDTAVYYCARDDGDYDWFDPWGQGTLVTVSS
VL: EIVLTQSPGTLSLSPGERATLSCRASQSVSSSYLAWYQQKPGQAPRLLIYGTSSRATGIPDRFSGSGSGTDFTLTISRLEPEDFAVYYCQQYDNSYTFGQGTKLEIK
notes: as for B2
B8: H2M1934N (antibody, V domains shown)
VH: EVQLVQSGGGLVKPGGSLRLSCAASGFTFSNFNMNWVRQAPGKGLEWVSFISSLSTYTYYADSVKGRFTISRDNAKNSLYLQMNSLRAEDTAVYYCARDDGDHDWFDPWGQGTLVTVSS
VL: B7 VL with G9D, S32N, G51S, T52A, S54N, N94S
notes: as for B2
B9: H2M1937N (antibody, V domains shown)
VH: QVQLQQWDAGLLKPSETLSLTCAVYGGSFSSYYWSWIRQPPGKGLEWIGEINHRGSTNYNPSLKSRVTISVDTSKNQFSLKLRSVTAADTAVYYCARGGVAARPDWHFFDYWGQGTLVTVSS
VL: DIQMTQSPSSLSASVGDRVTITCRASQVIRNDLGWFQQRPGKAPKRLIYAASSLQSEVPSRFSGSGSGTEFTLTITSLQPEDFATYYCLQHNSYPLTFGQGTRLEIK
notes: as for B2
B10: H2M1938N (antibody, V domains shown)
VH: EVQLVESGGGVVRPGGSLRLSCAASGFTFDDYGMSWVRQVPGKGLEWVSGLNWNGGITGYTDSVKGRFTISRDNAKNSLYLQMNSLRAEDTAFYHCARDSGDQDAFDIWGQGTMVTVSS
VL: QIVMTQSPATLSVSPGERATLSCRASQSITPYLAWYQQKPGQTPRLLIYGVSTRATGIPARFSGSGSGTEFTLTISSLQSEDFAVYYCQQYDNWYTFGQGTKLEIK
notes: as for B2
B11: H1M1819N (antibody, V domains shown)
VH: EVQLVESGGGVVRPGGSLRLSCAASGFTFDDYAMHWVRQAPGKGLEWVAGISWNSGSIDYADSVKGRFTISRDNAKNSLYLQMNSLRAGDTALYYCAKDILDLDYYGLDVWGQGTTVTVSS
VL: DIQMTQSPSSLSASVGDRVTITCRASQDISSYLAWYQQKPGKVPNLLIYDASSLQSGVPSRFSGSGSGTDFTLTLSSLQPEDFASYYCQNYNSAPYTFGQGTKLEIK
notes: as for B1
B12: H2M1936N (antibody, V domains shown)
VH: EMQLVESGGGLVQPDRSLRLSCAASGFNFDNYAIHWVRQAPGKGLEWVSGISWNSGNIGYADSVKGRFTISRDNAKNSLFLLMNSLRPDDSALYYCTRGYNWNALSPMDVWGQGTTVTVSS
VL: B11 VL with I21V, D28G, S31N, N45K, D50A, S53T, L75I, F83V, Y96M, L104V
notes: as for B2

Substitutions are numbered along the chain they refer to. Names may count otherwise.

T1 sequence (chain, as listed by the source limits assumed): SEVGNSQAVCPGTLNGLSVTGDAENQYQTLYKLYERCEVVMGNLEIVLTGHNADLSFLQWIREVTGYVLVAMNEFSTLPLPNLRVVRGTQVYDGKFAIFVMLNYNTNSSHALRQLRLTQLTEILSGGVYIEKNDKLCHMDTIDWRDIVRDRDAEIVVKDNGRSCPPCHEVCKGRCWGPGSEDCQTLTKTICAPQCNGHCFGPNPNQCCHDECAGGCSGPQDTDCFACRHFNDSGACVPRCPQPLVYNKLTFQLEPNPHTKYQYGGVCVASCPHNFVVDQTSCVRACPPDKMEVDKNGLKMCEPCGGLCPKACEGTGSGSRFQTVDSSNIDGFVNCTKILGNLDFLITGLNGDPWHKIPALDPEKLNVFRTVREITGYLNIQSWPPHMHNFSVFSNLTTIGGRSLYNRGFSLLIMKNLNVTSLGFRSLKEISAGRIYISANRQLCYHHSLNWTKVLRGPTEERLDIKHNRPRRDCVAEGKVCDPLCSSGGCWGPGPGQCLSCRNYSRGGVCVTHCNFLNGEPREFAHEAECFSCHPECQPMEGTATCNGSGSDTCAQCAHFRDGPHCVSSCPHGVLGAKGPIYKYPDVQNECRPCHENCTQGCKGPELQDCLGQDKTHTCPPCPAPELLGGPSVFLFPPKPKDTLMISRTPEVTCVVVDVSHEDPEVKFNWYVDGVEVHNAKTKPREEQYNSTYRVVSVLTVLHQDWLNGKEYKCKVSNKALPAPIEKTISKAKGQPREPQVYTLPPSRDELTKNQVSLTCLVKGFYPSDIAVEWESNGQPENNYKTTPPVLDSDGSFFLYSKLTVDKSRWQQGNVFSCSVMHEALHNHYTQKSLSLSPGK
Sequence of hErbB3.mmh (soluble monomeric human ErbB3 extracellular domain with C-terminal myc-myc-hexahistidine tag) (P21860 other isoform, or with tags, fused parts or gaps): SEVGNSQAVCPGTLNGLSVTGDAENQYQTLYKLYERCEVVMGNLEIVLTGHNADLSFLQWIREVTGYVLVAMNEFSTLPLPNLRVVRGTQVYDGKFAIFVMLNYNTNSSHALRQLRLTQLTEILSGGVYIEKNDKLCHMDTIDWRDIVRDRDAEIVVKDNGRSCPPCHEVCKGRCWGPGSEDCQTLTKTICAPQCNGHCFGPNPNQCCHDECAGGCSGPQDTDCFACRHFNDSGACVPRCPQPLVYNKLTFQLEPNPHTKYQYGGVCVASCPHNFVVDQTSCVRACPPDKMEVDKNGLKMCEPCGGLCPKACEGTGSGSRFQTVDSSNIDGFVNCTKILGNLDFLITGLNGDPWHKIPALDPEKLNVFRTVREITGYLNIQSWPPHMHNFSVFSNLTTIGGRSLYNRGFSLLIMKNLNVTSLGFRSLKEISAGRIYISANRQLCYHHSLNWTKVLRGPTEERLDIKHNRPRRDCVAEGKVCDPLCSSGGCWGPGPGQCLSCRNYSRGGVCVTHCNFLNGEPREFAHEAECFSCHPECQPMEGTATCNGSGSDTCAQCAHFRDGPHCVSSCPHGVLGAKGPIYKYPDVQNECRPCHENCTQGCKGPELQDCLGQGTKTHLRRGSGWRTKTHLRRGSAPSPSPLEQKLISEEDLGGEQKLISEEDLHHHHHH

One assay concerns the target hErbB3.mmh (soluble monomeric human ErbB3 extracellular domain with C-terminal myc-myc-hexahistidine tag) (human, UniProt P21860 20-642). Briefly: SPR (Biacore), 25 C, mAb capture format. As to the method:
(§1) (Tables 2-4). Measurements were conducted on a Biacore 2000 or T100 instrument. […] Kinetic association (kₐ) and dissociation (kd) rate constants were determined by processing and fitting the data to a 1:1 binding model using Scrubber 2.0 curve fitting software.
B1 had a dissociation constant Kd of 477 pM, a T½ of 1.4 h, an off-rate (koff) of 0.000138 s⁻¹ and a kon of 289000 M⁻¹ s⁻¹.
The like results for B2 were, in that order, 281 pM, 2.98 h, 6.46e-05 s⁻¹ and 230000 M⁻¹ s⁻¹.
The like results for B3 were, in that order, 205 pM, 4.23 h, 4.56e-05 s⁻¹ and 223000 M⁻¹ s⁻¹.
B4 showed a Kd of 409 pM, a T½ of 2.15 h, a koff of 8.96e-05 s⁻¹ and a kon of 219000 M⁻¹ s⁻¹.
The like results for B5 were, in that order, 867 pM, 0.967 h, 0.000199 s⁻¹ and 229000 M⁻¹ s⁻¹.
For B6, the Kd came out at 515 pM, the T½ stood at 0.733 h, the koff was found to be 0.000265 s⁻¹ and the kon stood at 513000 M⁻¹ s⁻¹.
Turning to B7, binding was put at a Kd of 559 pM, the T½ stood at 1.77 h, the off-rate (koff) worked out at 0.000109 s⁻¹ and the on-rate constant (kon) was determined as 196000 M⁻¹ s⁻¹.
In turn, B8 returned a Kd of 438 pM, a T½ of 2.62 h, an off-rate constant (koff) of 7.35e-05 s⁻¹ and a kon of 168000 M⁻¹ s⁻¹.
Take B9: the affinity, expressed as Kd, was 682 pM; the T½ came out at 3.42 h; the koff came to 5.63e-05 s⁻¹; the association rate constant (kon) worked out at 82600 M⁻¹ s⁻¹.
B10 showed an equilibrium dissociation constant (Kd) of 599 pM, a T½ of 1.33 h, a koff of 0.000144 s⁻¹ and a kon of 241000 M⁻¹ s⁻¹.
The like results for B11 were, in that order, 1010 pM, 0.6 h, 0.000322 s⁻¹ and 319000 M⁻¹ s⁻¹.
The like results for B12 were, in that order, 6590 pM, 0.683 h, 0.000285 s⁻¹ and 43200 M⁻¹ s⁻¹.

The next assay has as its target T1, hErbB3.hFc (soluble dimeric human ErbB3 extracellular domain fused to human Fc) (human).
T1 construct: called dimeric
Briefly: SPR (Biacore), 25 C, mAb capture format. As to the method:
as §1
Turning to B1, binding was characterised by a dissociation constant (Kd) of 52.9 pM, the T½ is 7.92 h, the koff is 2.43e-05 s⁻¹ and the kon was 460000 M⁻¹ s⁻¹.
B2 yielded a Kd of 19.8 pM, a T½ of 22.4 h, a koff of 8.61e-06 s⁻¹ and an association rate constant (kon) of 436000 M⁻¹ s⁻¹.
Molecule B3 gave a Kd of 3.34 pM, a T½ of 134 h, an off-rate constant (koff) of 1.44e-06 s⁻¹ and a kon of 431000 M⁻¹ s⁻¹.
The like results for B4 were, in that order, 17.3 pM, 25.4 h, 7.58e-06 s⁻¹ and 439000 M⁻¹ s⁻¹.
The like results for B5 were, in that order, 41.3 pM, 10.1 h, 1.9e-05 s⁻¹ and 461000 M⁻¹ s⁻¹.
Consider B6, for which the affinity, expressed as Kd, was 27.9 pM; the T½ stood at 4.43 h; the dissociation rate constant (koff) worked out at 4.34e-05 s⁻¹; the on-rate constant (kon) is 1.56e+06 M⁻¹ s⁻¹.
In the case of B7, the equilibrium dissociation constant (Kd) is 20.5 pM, the T½ amounted to 23.3 h, the koff stood at 8.27e-06 s⁻¹ and the kon came out at 404000 M⁻¹ s⁻¹.
Molecule B8 came in with a Kd of 22.2 pM, a T½ of 24.2 h, an off-rate (koff) of 7.97e-06 s⁻¹ and a kon of 359000 M⁻¹ s⁻¹.
The like results for B9 were, in that order, 116 pM, 15.1 h, 1.27e-05 s⁻¹ and 110000 M⁻¹ s⁻¹.
For the molecule B10, the dissociation constant Kd came out at 30.1 pM, the T½ stood at 14.2 h, the koff came to 1.36e-05 s⁻¹ and the kon worked out at 451000 M⁻¹ s⁻¹.
Molecule B11 gave a Kd of 122 pM, a T½ of 3.27 h, an off-rate (koff) of 5.88e-05 s⁻¹ and a kon of 480000 M⁻¹ s⁻¹.
The like results for B12 were, in that order, 1090 pM, 2.77 h, 6.97e-05 s⁻¹ and 64100 M⁻¹ s⁻¹.

A further assay addresses T1, hErbB3.hFc (soluble dimeric human ErbB3 …). Description: blocking ELISA: antibody + 50 pM ErbB3-hFc on neuregulin1b-coated plate. The source says: To further characterize anti-hErbB3 mAbs of the present invention, their ability to block ligand binding was examined via ELISA. […] Plates were washed and non-sequestered (plate bound) ErbB3 was detected with an anti-Fc poly conjugated with horseradish peroxidase (HRP). Plates were developed with TMB (3,3′,5,5′-tetramethylbenzidine) and neutralized with sulfuric acid before reading absorbance at 450 nm on a Victor X5 plate reader. Data analysis used a sigmoidal dose-response model within Prism™ software. […] Maximal blocking for each antibody was calculated by taking the difference in absorbance from zero to 50 nM antibody on the inhibition curve, divided by the difference in absorbance from 50 pM to zero ErbB3 on the dose curve.
As to B1, the IC50 was found to be 530 pM and the “Maximal Blocking (%)” value was found to be 80%.
With B2, the half-inhibitory concentration (IC50) is 23.8 pM and the “Maximal Blocking (%)” value was found to be 98%.
On to B3, for which the IC50 turned out to be 25.1 pM and the “Maximal Blocking (%)” value turned out to be 99%.
Consider B4, for which the 50% inhibitory concentration (IC50) amounted to 22.9 pM and the “Maximal Blocking (%)” value was 98%.
As for B5, the half-maximal inhibitory concentration (IC50) was found to be 28.5 pM and the “Maximal Blocking (%)” value was 96%.
B6: the half-maximal inhibitory concentration (IC50) was found to be 30 pM and the “Maximal Blocking (%)” value was 95%.
Take B7: the half-maximal inhibitory concentration (IC50) came to 22.2 pM and the “Maximal Blocking (%)” value turned out to be 87%.
Regarding B8, the IC50 came to 26.1 pM and the “Maximal Blocking (%)” value is 80%.
Consider B9, for which the IC50 was 44 pM and the “Maximal Blocking (%)” value came to 95%.
The like results for B10 were, in that order, 24.9 pM and 85%.
The like results for B11 were, in that order, 31.5 pM and 92%.
As to B12, the IC50 came out at 527 pM and the “Maximal Blocking (%)” value was found to be 91%.
